Experimental data: publication PMC9129923

Molecular target: microtubules grown from porcine brain tubulin (porcine) (UniProt P02550)
Assay: TIRF microscopy of fluorescent proteins on dynamic microtubules in vitro

fold intensity along MTs over NEDD1^CDK1/PLK1 [fold]	MT binding at 10 nM, percent of γ-TuRC^StN/CDK1/PLK1 [%]	MT binding at 50 nM, percent of γ-TuRC^StN/CDK1/PLK1 [%]	Substance
20	–	–	augmin^CDK1/PLK1-GFP, Q96CS2-1;Q9NVX0-1;Q68CZ6-1;Q9H6D7-1;O94927-1;Q7Z4H7-1;Q99871-1;Q9BT25-1
–	21	13	γ-TuRC^ΔWD/StN/CDK1/PLK1-GFP (γ-TuRC purified by Strep-NEDD1 ΔWD, GCP3-GFP) (from UniProt P23258;Q9BSJ2-1;Q96CW5-1;Q9UGJ1-2;Q96RT8-1;Q96RT7-1;Q08AG7;Q6P582;Q6NZ67;Q9Y5B8-1) (complex)
